# Data from the DeepSol protein solubility set.
# Test: soluble on expression in E. coli; label from the status in PepcDB or PDB records
row,Sequence,soluble on expression in E. coli
1,MAHHHHHHSLMLVVRPISMADYEALHTCAVESGHGFTSLPVDQELLTNRITHSEYSFSKPNVTMPGDEGYLMVGVDTETGQVAGTTGIEASIGWDVPFYSYHISTIVHSSPKLGVNNVVKLLTFGNNYTGCSEICTLFLRPQYRQGLNGRLMSKCRFLMMAEHSHRFSKTIFAEMRGVSDADGNSPFWKWLQEHFFSIDFTLADYLTGIGKKGFIADLMPKLPIYVNLLSKEAQAVIGQVHENTRPALVLLEKEGFTCRNYVDIFDAGPTVECELNNIESVRHSVRAIVEVAEHSSSQNFIMCNTSFENFRATAAKAAYSQEDNAVIISPKVAAALEVSTGDYLRILAQEG,not soluble
2,MSLRAIGLSNQVQHLKETVIAVEKKSKHKKTDDSLDISRIQYYMNNFVYYYINYSQDTADQRKTELENYYSFSTASMTDDVRKSRTLQTQRLISVEKEKDYYIALMRIGYEVDKKSYQMNLAVPFQMQRGLLAIVSQPYTVAEDLYLGKSKAFEKKTLDQVKELSKEQVSSIQKFLPVFFNKYALINKTDLKLLMKTPELMGKGFKVSELDLNNAIYYQEKKHQVVQLSVTFEDLVTGGTRSENFTLYLFKADNGWYVEEMYHYFKEGHHHHHH,soluble
3,MNTTLFRWPVRVYYEDTDAGGVVYHASYVAFYERARTEMLRHHHFSQQALMAERVAFVVRKMTVEYYAPARLDDMLEIQTEITSMRGTSLVFTQRIVNAENTLLNEAEVLVVCVDPLKMKPRALPKSIVAEFKQ,soluble
4,MGSDKIHHHHHHMNTKDLAYFDELISQKNFSKVAKTFGVSQPTVTTAIKRLESEFGAPLVIRDRVKNTLHVTASGAQLAEHAKIVLHELRLAHQEIDNLSQNRLILGLPPIIENHYFPKIGARLAAEGLLAGLETIEGGSIWLRNAVRDGRVDMTLLGSVEPLAYQTLIAEEFDRQPFCIYVSKQHPLAQRKRVYFNELRREKFVFFNSNFIHNTAFNKLTRRNHFRPNIVFRSNDTHVLMKLIGENVGIGFFTKIVDHYRTDVVRLDLMDIEPPEFITSIVYRTTHILTPVQQQLLTILHETLAVDTDQTD,not soluble
5,MGSSHHHHHHSSGLVPRGSHMRVAMISMHTSPLQQPGTGDSGGMNVYILSTATELAKQGIEVDIYTRATRPSQGEIVRVAENLRVINIAAGPYEGLSKEELPTQLAAFTGGMLSFTRREKVTYDLIHSHYWLSGQVGWLLRDLWRIPLIHTAHTLAAVKNSYRDDSDTPESEARRICEQQLVDNADVLAVNTQEEMQDLMHHYDADPDRISVVSPGADVELYSPGNDRATERSRRELGIPLHTKVVAFVGRLQPFKGPQVLIKAVAALFDRDPDRNLRVIICGGPSGPNATPDTYRHMAEELGVEKRIRFLDPRPPSELVAVYRAADIVAVPSFNESFGLVAMEAQASGTPVIAARVGGLPIAVAEGETGLLVDGHSPHAWADALATLLDDDETRIRMGEDAVEHARTFSWAATAAQLSSLYNDAIANENVDGETHHG,soluble
6,MKVKSISRFFSMKKVTLSFVTLFIGVGTIGSYNQYADASMKTQQTHVTKSSPTQKTTSNFKRSVKDTSVKSRATSIKRATSTKQAISPKTSSTKKTTIAKKSTTVNKTRTTTKTQPTIRKSSTTSTRSKTMPTSVKRTTSHKATTVSPTSKAKISTKTQQSTKSHTTSVKKNTTQLSKTKSPSTSTKSKTVQSSTTKAQPTLSTQVSTTTKAKQFSTPTTSKTDSSKSLVSLASTERKIDKYQSMTQLEKETTEGVDWRKDTKNTGNQVLIVAPHGGSIEQGTTELTKALADKGNYDYYSFEGIRPKNNSELHVTSTHYDDPTLNQMIKNRTATISIHGASGSEEIIYLGGPRSDLRNAIEKQLVARGFTVKVPPEYLGGQNNKNFINREDNNTGVQLELTTALRKAFFKNGDTSTKNRTNKENWTPTMEEFINALYEGINQTYSLEHHHHHH,not soluble
7,MGSDKIHHHHHHMGENMKILISVCGEGFGHTTRCVAIGEALKNDYEISYIAYGKSKNFIEKYGFKVFETFPEIKLKGKDGKFDITSSILNKEYSPKKAIRREINIIREYNPDLIISDCKYSTVVAAKLLKKPVICISNQNYTRYKLKTDLIVYPTMKALNIINERCERFIVPDFPLPYTICEYNLKIIKNMEFIGPLIRYDVDDVDNYGEDYILSVIGGFEYRYKILEELGKIALKNNLNVKLVCGSYEVAKKLMRDLNLNSYKNENVEIIPITTNMKELIKNAELIVSHGGHSTIMEALSFGKPLIVIPDLDHPEQGNNAKKVHDLGCGIALSYKELYRLEEAILDIRNMKMYKRNASKMKELAKKYDGKKNIKKIIDEFFETRKNIRKYYLTDRIANKLINKFKLKIR,not soluble
8,MILSMTGFGKHTIQFADKKITATIKSLNSKQFDLSTKISSRYRDRELPLRALVSADIGRGKVDFSLFLEESGSTDVVSQIFDTEKMSSYFFQLKEFGEKMGVEVPAGGWFEQLLRIPGVIQIDEDKEEEIPEDEWAVVIETCRRALDQLIGFREQEGAMLEQVFTEKISNISSLLLQIEQYEPDRIQRIKERIEENLTKISEKDYDKNRFEQEMIYYIEKLDVNEEKHRLRNHLSYFLQTMQGEPGQGKKLSFIAQEIGREINTLGSKSNHVEMQQIVVQMKDELEQIKEQVLNVL,not soluble
9,MSLITQRSSMIGVVTAGFENPLRARLLSDLMAVLGQRAFTPLVTNADDPQQLRQALERLLSYRVAGLVMTSASPPLSVARQYLAHRIPVVMINREANLAGADVVVSDNAAGAAEAAQRLVHAGARRLAFVGPHTASFSARSRADAFAHALQRGNMSGATLASVIDTASDTHACGLDAAQQLFAAGHRPDGVFCSSDLLALGVIDAARAAFGLRVPDDVRVIGFDDIPAAAYHAYRLTTLRQDTQGLAHAAVDLLADRISAFDGASRTRVVPVTHVVRHSCAEGHHHHHH,soluble
10,MGSDKIHHHHHHMKTWTPDLSRSDGPRYLAIADVIEMDLKSGRLLVGDRLPPQRDLAKRLAIDFTTVARGYVEAQKRGLVATHVGRGTFVTGGPEKERRGFVSEAALDARRMSVVDFSMNMPPEPDDPDLLARMQEGLSAVATNMIPLLRYQGFGGAGMDKEAAASWLSRRGLVPSQERIFVTPGAHPALLAIFGLLAKPGEMVLSENITYPGMRSIAAQLRLNLTGLPMDADGIIPGAFAEICETAKPKALYLNPTLQNPMTLTIPEKRREEICAVARKYHVPIVEDDAYGFIPLHSPAPLAAMAPDLTWHIGGLAKCIGAGLRLAYVVVPDTKAAWPFASAMRAASVMASPLSAALATRWIEDGTADSILRFIRTEAAARQALVAEVLPAGSYQSDPISFNIWLPLTNGWTRSTFGTHMRASGIGVVASDAFTVDGVAEEAVRVCLGGPIRRETLKGALEFMGHALEGSPQMAGTFF,not soluble
11,TSDQRKAEEHIEKEAKYLASLLDAGNLNNQANEKIIKDAGGALDVSASVIDTDGKVLYGSNGRSADSQKVQALVSGHEGILSTTDNKLYYGLSLRSEGEKTGYVLLSASEKSDGLKG,not soluble
12,MQPERYVWAKYFWEQARDANGVARRHLGDTTRNNGAPTVGSPFVALCGIDVTPHPEDTDTARGTCFAPACMVCTTLFARATGWSAGAIGNLIQTFQWTNNDVRQLGLALGMTASQTRRQIEQWTQEADKVNKARHTAKQQKAAGR,not soluble
13,MGSDKIHHHHHHMKLEKILQDLEQNHNLRTLTPLKHENKFVYKQDHKLLNLVGNDYLYLASSKELKAEFLNTLKEQDLFFSSSSSRSLSGNFEIYEKLESFLKTKFKDKEILHFNSGYHLNISCIAALSSVSKTLFLTDKFIHASMIDGLRLGRADFFRFHHKDMNHLESLIQKHYENYENIIVLSEALFSMDGDFSDFKTLCELKRRYDKIKLYIDEAHSVGCFDEEGLGLVKKLALENEVDFLVFTFGKALASMGACIICDEKYKKFFINKARAFIYSTALPPINVAWTQFIFKKMPYFKKEREKLELLSTFFKSKLQEKNHIVLGDAYIICLLLGENKKALEISQKLQKAGFFAPAIKEPTVPKNTARIRFSLHAGLNTEELERIIELL,not soluble
14,MDGDGDPESVSHPEEASPEEQPEEAGAEASAEEEQLREAEEEEEAEAVEYLAELPEPLLLRVLAELPATELVQACRLVCLRWKELVDGAPLWLLKCQQEGLVPEGSADEERDHWQQFYFLSKRRRNLLRNPCGEEDLEGWSDVEHGGDGWKVEELPGDNGVEFTQDDSVKKYFASSFEWCRKAQVIDLQAEGYWEELLDTTQPAIVVKDWYSGRTDAGSLYELTVRLLSENEDVLAEFATGQVAVPEDGSWMEISHTFIDYGPGVRFVRFEHGGQDSVYWKGWFGARVTNSSVWVEP,soluble
